Columns and labels:
Assay in all cases: EMSA
[1] = tested on: Zif268 3F peptide; conditions: calibration reference; value from ref 51; Buffer, salt, pH and temperature not given (methods cited); phage ELISA with 0.125-32 nM DNA; EMSA with 5-fold dilution series of TNT-expressed protein; cited from earlier work
[2] = tested on: VP16-6ZfFLO11/F2-F1 (engineered); conditions: Buffer, salt, pH and temperature not given (methods cited); phage ELISA with 0.125-32 nM DNA; EMSA with 5-fold dilution series of TNT-expressed protein
[3] = tested on: VP64-6ZfFLO11/F2-F1 (engineered); conditions: Buffer, salt, pH and temperature not given (methods cited); phage ELISA with 0.125-32 nM DNA; EMSA with 5-fold dilution series of TNT-expressed protein

Substance | Kd [1] | binding signal (fold stronger than 3F rTFs) [2] | binding signal (fold stronger than 3F rTFs) [3]
Zif268 cognate 9-bp site | 2 nM | – | –
TFLO11/F2-F1 (also called F1-F2) 31-bp oligo | – | 10 | 10

— PMC1939876
